Test results: patent US20190375823A1

Assays:
CD19 on Raji B cells = CD19 on Raji B cells (UniProt P15391); experiment: cell-based or functional assay
CD3 on Jurkat T cells = CD3 on Jurkat T cells (UniProt P07766); experiment: cell-based or functional assay
[1] = biological target: HER2 and HER3 on cells (MALME-3M or SKOV cells); experiment: FACS; column head prints Bmax (MALME 20120603); parameters: unit not given here
[2] = biological target: HER2 and HER3 on cells (MALME-3M or SKOV cells); experiment: FACS on SKOV-3 cells, FITC-labeled anti-HSA detection
[3] = biological target: HER2 and HER3 on cells (MALME-3M or SKOV cells); experiment: FACS on MALME-3M cells (2012529), FITC-labeled anti-HSA antibodies
[4] = biological target: HER2 and HER3 on cells (MALME-3M or SKOV cells); experiment: FACS on SKOV cells (20120803), FITC-labeled anti-HSA antibodies; apparent Kd
[5] = biological target: HER2 and HER3 on cells (MALME-3M or SKOV cells); experiment: FACS on MALME-3M cells (20120529), FITC-labeled anti-HSA antibodies; apparent Kd
[6] = biological target: HER2 and HER3 on cells (MALME-3M or SKOV cells); experiment: FACS on MALME-3M cells, FITC-labeled anti-HSA antibodies; lower end of the range
[7] = biological target: HER2 and HER3 on cells (MALME-3M or SKOV cells); experiment: FACS on MALME-3M cells, FITC-labeled anti-HSA antibodies; upper end of the range

Sequence of CD3 on Jurkat T cells (P07766 23-207): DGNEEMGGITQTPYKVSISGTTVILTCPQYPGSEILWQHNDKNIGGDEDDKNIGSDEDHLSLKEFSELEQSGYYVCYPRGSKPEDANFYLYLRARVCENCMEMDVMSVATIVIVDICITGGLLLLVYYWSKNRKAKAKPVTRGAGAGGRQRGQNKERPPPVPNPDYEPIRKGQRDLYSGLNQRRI
Sequence of CD19 on Raji B cells (P15391 20-556 limits assumed): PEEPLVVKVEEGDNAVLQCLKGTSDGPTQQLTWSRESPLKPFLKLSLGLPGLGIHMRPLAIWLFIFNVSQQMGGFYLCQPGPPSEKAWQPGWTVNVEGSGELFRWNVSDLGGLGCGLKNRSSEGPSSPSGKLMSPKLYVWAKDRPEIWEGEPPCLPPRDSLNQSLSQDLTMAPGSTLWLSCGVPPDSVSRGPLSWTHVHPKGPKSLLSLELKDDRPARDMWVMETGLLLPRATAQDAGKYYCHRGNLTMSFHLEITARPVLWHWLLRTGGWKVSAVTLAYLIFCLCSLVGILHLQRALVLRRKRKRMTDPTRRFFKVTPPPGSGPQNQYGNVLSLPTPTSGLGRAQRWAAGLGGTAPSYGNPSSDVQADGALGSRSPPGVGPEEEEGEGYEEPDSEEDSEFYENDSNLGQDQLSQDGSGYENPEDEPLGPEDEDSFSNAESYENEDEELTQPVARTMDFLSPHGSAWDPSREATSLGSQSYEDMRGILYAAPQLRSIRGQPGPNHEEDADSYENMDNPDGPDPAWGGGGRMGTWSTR

Substance	Whole cell bridging by FACS (Jurkat-violet + RAJI-FarRed): % of events labeled both violet and Far-red; needs binding of both CD3 and CD19 (% of total cells) (CD19 on Raji B cells)	Whole cell bridging by FACS (Jurkat-violet + RAJI-FarRed): % of events labeled both violet and Far-red; needs binding of both CD3 and CD19 (% of total cells) (CD3 on Jurkat T cells)	Bmax [1]	EC50 (read off the curve) [2] [nM]	Bmax [3]	Kd [4] [nM]	Kd [5] [µM]	Kd [6] [nM]	Kd [7] [nM]
v891: anti-CD3xCD19 BiTE control (bispecific antibody)	21	21							
v1087: benchmark control variant of MM-111 (anti-Her3 H3 scFv - AAS - albumin - AAAL - anti-Her2 B1D2 scFv) (bispecific antibody)			6580	10	1470	10.7	12	5	55
